Measured values: the nanobody polyreactivity screen of Harvey et al. (2022)

Assay: yeast display, Sf9 membrane polyspecificity reagent, FACS + sequencing; frameworks hold sequencing errors
How it was run: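 Nanobodies from a synthetic yeast display library (Saccharomyces cerevisiae BJ5465), induced 36–48 hours with galactose, were stained 1 hour at 4 °C with 10% biotinylated, detergent-solubilized Sf9 membrane reagent, enriched on streptavidin microbeads, then FACS-sorted. Anti-HA (expression) and streptavidin (reagent binding) fluorescence set low and high (top ~1%) gates. Polyreactivity labels come from the gate of origin. Genes were colony-PCR amplified, MiSeq 2 × 250 sequenced and filtered by CDR length.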

Sequence	polyreactivity (PSR sort gate)
QVQLVESGGGLVQAGGSLRLSCASSGRIFDGYAMVWYRQAPGKERELVATISSGGSTYYADSVKGRFTISRDNAKNTVYLQMNSLKPEDTAVYYCAADSWVQFDYWGQGTQVTVSS	low polyreactivity
HVQLVESGGGLVQAGGSLRLSCAASGSTFGSYALGWYRQAPGKERELVADISSRGASTYNADSVKGRFTISRDNAKNTVYLQMNSLKPEDTAVSYCATDKLYGRTVRMDYWGQGTQVTVSS	low polyreactivity
QVQLVESGGCLVQAGGSLRLSCASSGSTIGGYAMGWYRQAPGKERELVAAITWNGGRTYYADSVKGRFTISRDNAKNTVYVQMTSLKQEDTAVYYCATLNLSRSKRVSGGGYWGQGTQVTVSS	high polyreactivity
QVQIVESGGGLVQAGGSLRLSWAASGSNLDFNAMGWYRQAHGKERELVAAINNSGGSTYYADSLKGRFTISRDTAKKTVYLQMNRLKPEDTAVYYCARYAFWKRAYWGQGTQETVSS	low polyreactivity
QVQLVESGGGLVQAGGSLRLSCAASGSIFRVNAMGWYRQAPGKERELVAAITDGGITNYADSVKGRFTISRDNAKNTVYLQMNSLKPEETAVYYCAADTDRDFHYVVPTYDYWGQGTQVTVSS	low polyreactivity
QVQLVESGGGLVQAGGSLRLSCAASGSIFVYNAMGWYRQAPGKERELVAAIDTVGSTNYADSVKGRFTISRDNAKNTVYLQMNSLKPEDTAVYYCAVVTPYWSFYEQVIPSNYWGQGTQVTVSS	low polyreactivity
QVQLVESGGGLVQAGGSLRLSCAASGLTFIFNAMGWYRQAPGKERELVADISSGVNTNYADSVKGRFTISRDNAKNTVYLQMNSLKPEDTAVYYCNARRYWLRYDYWGQGTQVTVSS	low polyreactivity
QVQLVESGGGLVQAGGSLRLSCAASGGTFGAYAMGWYRQAPGKERELVAAINVGGGSTYYADSVKGRFTISRDNAKNTVYLQMNSLKPEDTAVYYCAKDLYDGYWRGDYWGQGTQVTVSS	low polyreactivity
QVQLVESGGCLVQAGGSLRLSCAASGRIFYGNTMGCYRQAPGKESELVATITRSGGSTYYADSVKGRFTISRDNAKNTVYLQMNNLKPEDTAVYYCAVGYWRLFPYGYWGQGTQVTVSS	high polyreactivity
QVQLVESGGGLVQAGGSLRLSCAASGSTLNRNVMGWYRQAPGKERELVAVITYGVGSTYYADSVKGRFTISRDNAKNTVYLQMNSLKPEDTAVYYCNKDPLVFDYWGQGTQVTVSS	low polyreactivity
QVQLVESGGGLVQAGGSLRLSCAASGSIFTRYTMGWYSQAPGKERELVAVISDSSGRTYYADSVKGRFTISRDNAKNTVYLQMNSLKPEDTAVYYCAAEYSDIYEYWGQGTQVTVSS	low polyreactivity
QVQLVESGGGLVQAGGSLRLSCAASGSIFHVNARGRYRQAPGKERELVAGISDGGSTYYADSVKGRFTISRDNAKNTVYLQMNSLKPEDTGVYYCAAESEQWYSYVLSYDWEYDYWGQGTQVTVSS	low polyreactivity
QVQLEESGGGLVQAGGSLRLSCAASVSIFGVNVMGWYRQAPGKERELVAAISSGGSTNYADSVKGRFTISGDNEKKTVYLLMISLKPDDTAVYFCIAGLGRLYDYWGQGTQVTVSS	low polyreactivity
QVQLVESGGGLVQAGGSLRLSCAASGSTFYPYAMGWYRQATGKERELVAGISWSGGSTYYADSVKGRFTFSRDNAKNTVYLQMNSLNPEDTAVYYCAVDVYWSVIYDYWGQGTQVTVSS	low polyreactivity
QVQLVESGGGLVQAGGSLRLSRAASGSIFVSNAMGWYRQAPGKERELVAAIRGVDSTYYADSVKGRFTISRDNAKTTVYLQMNSLKPEDTAVYYCATRGPGYPRYYDWGQGTQVTVSS	high polyreactivity
QVQLVESGGGLVQAGGSLRLSCAASGRTFLRNDMVWYRQAPGKERELVAAISYSGGRTYYAVSVKGRFTISRDNAKNTVYLQMNSLKPEDTAVYYCAADRFFKAIRPYDYWGQGTQVTVSS	high polyreactivity

Sequence	polyreactivity (PSR sort gate)
QVQLVESGGGLVQAGGSLRLSCAASGSTFVYNAMGWYRQAPGKERELVAGIRSSGDRTYYADSVKGRFTISRDNGKNTVYLQMNSLKPEDTAVYYCAAYLGRDPWFSRQGYGYWGQGTQVTVSS	high polyreactivity
QVQLVESGGGLVQAGGSLRLSCAASGRIIYRYAMGWYRQAPGKERELVATITWSTTSTYHADSVKGRFTISRDNAKNTVYLQMNSLKPEDTAVYYCAASIIPGFRRDPFGYWGQGTQVTVSS	low polyreactivity
QVQLVESGGGLVQAGGSLRLSCAASGRTLDVNAMGWYRQAPGKERELVAAISYSGGITYYADSVKGRFTISRDNAKNTVYLQMNSLKPEDTAVYYCAVVGGYPSYTVDYWGQGTQVTVSS	low polyreactivity
QVQLVESGGGLVQAGGSLRLSCAASGRIFQDNAMGWSRQAPGNERELVAAISKSGGITYYADSVKGRFTISRDNAKNTVYLQMNSLKPEDTAVYNCAAVWSRFLISYSTGWWFEYWGQGTQVTVSS	low polyreactivity
QVQLVESGGALVQAGGSLRLSCAASGSTSYTNAMGLYRHAPGKEREFVASISLSAGSTYYADSVKGRFKISRDNAKNTVYLQMNSLKPEDTAVYYCASESVAILGLVYPKGYGYWGQGTQVTVSS	low polyreactivity
QVQLVESGGGLVQAGGSLRLSCADSGRIFVHNAMGCYRQAPGKERELVAAISWRATRTYYADSVKGRFTISRDNAKNTVYLQMNSLKPEDTAVYYWAAVTPAYSTSSSSYDYWGQGTQVTVSS	high polyreactivity
QVQLVESGGGLVQAGGSLRLSCAASGYIFKSNVMGWYRQAPGKERELVAAISWSGGRTYYADSVKGRFTISRDNAKNTVYFQRNSLKPEDTAVYYCAAVGRQSNYYVDYDYWGQGTQVTVSS	high polyreactivity
QVQLVESGGGLVQAGGSLRLSCAASGSIYGLYAMGWYRQAPGKERELVATITSGSSTNYADSVKGRFTISRDNAKNTVYLQMNSLKPEDTAVYYCAVDDLYGFDYWGQCTQVTVSS	low polyreactivity
QVQLVESGGGLVQAGGSLRLSCAASGITLYGYAMGWYRQAPGKEREFVAAISRSGDRTYYADSVKGRFTISRDNAKNTVYLQMNSLKPEDTAVYYCNAWRYDYWGQGTQVTVSS	high polyreactivity
QVQLVESGGGLVQAGGSLRLSCAASGYIFANNAMGWYRQAPGKERELVAAISSSGGRTYYADSVKGRFTISRDNAKNTVYLQMNSLKPEDTAVYYCNKYGTALWRYYYWGQGTQVTVSS	high polyreactivity
QVQLVESGGGLVQAGGSLRLSCGASGRIIGYNAMGWYRQAPGKERELVAVISTSGTITYYADSVKGRFTISRDNAKNTVYLQMNRLKPEDTAVYYCAARYYQRANGFGYCGQGTQVTVSS	low polyreactivity
QVQLVESGGGLVQAGGSLRLSCAASGRTFRANAMGWYRTAPGKEMELVAAISQRGGNTYYADSVKGRFTISRDNAKYTVYLQMNSLKPEDTAVYYCAADITTYRRGRYEYEFWGQGTQVTVSS	high polyreactivity
QVQLVESGGGLVQAGGSLRLSCAASGRTFYPNAMGWYRQAPGKERELVAAISYSGGSTYYADSVKGRFTISRDNAKNTVYLQMNSLKPEDTAVYYCAAEFSLDKRDYWGQGTQVTVSS	low polyreactivity
QVQLVESGGGLVQAGGSLRLSCAASGRIFGYYAMGWYRQAPGKERELVAAISWSGGRTYYADSVKGRFTISRDNAKNTVYLQMNSLKPEDTAVYYCNKVYRVPITEEYDYWGQGTQVTVSS	high polyreactivity
QVQLVESGGGLVQAGGSLRLSCAASGSTFDAYAMGWYRQAPGKERELVAAITWSGGSTYYADSVKGRFTISRDNAKNTVYLEMNSLKPEDTAVYYCAADKLGELDYWGQGTQVTVSS	low polyreactivity
QVQLVESGGGLVQAGGSLRLSCAASGSIFVDNAMGWYRQAPGIERELVAVITLRSGSTNYADSVKGRFTISRDNAKNTVYLQMNSLKPEDTAVYYCAADDTYHDYQRDTDDDYWGQGTQVTVSS	low polyreactivity
